# Experimental data: patent US20150166611A1
# Assays:
# [1] = biological target: HIV-1 Env (NL4-3) labeled with Cy3 at the LV4-2-A1 loop insertion, on virions (HIV-1 NL4-3); test: intermolecular smFRET; high-FRET state assigned to CD4 bound to the Cy3-labelled gp120
# [2] = biological target: wild-type HIV-1NL4-3 Env (unlabeled gp120 protomers of the trimer on virions) (HIV-1 NL4-3); test: intermolecular smFRET; CD4 bound to an unlabeled gp120 of the trimer, donor Cy3 on the neighbouring labelled gp120
substance,measurement,setting,value
Cy5-labeled soluble CD4(C92) (D1-D2) (from UniProt P01730 26-208) (receptor),FRET state (high) (FRET efficiency),[1],0.85
same,FRET state (intermediate) (FRET efficiency),[2],0.3
same,FRET state (low) (FRET efficiency),[2],0.2
